According to the supplement of paper PMC9112550, “Optimization of the antimicrobial peptide Bac7 by deep mutational scanning” (BMC Biology, 2022):

Test system: Escherichia coli TOP10
Assay: shrunken log2 fold change of peptide-encoding DNA abundance (4.5 h post-induction vs induction); higher = less antimicrobial activity (less host growth inhibition)
Details: time post-induction: 4.5 h; library: site-saturation at positions 5, 18, 19, 20
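Also: peptides expressed intracellularly from a pBAD plasmid library in pooled LB shake-flask culture, induced with 0.3% L-arabinose, DNA abundance read by NGS, three biological replicates, DESeq2 with apeglm shrinkage.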

| Sequence | shrunken log2 fold change |
| --- | --- |
| RRIRRRPPRLPRPRPRPTAQPRP | 0.244 |
| RRIRQRPPRLPRPRPRPRKAPRP | -0.0029 |
| RRIRKRPPRLPRPRPRPPNCPRP | 0.0388 |
| RRIRRRPPRLPRPRPRPKWSPRP | 0.457 |
| RRIRWRPPRLPRPRPRPTSRPRP | 0.0324 |
| RRIRCRPPRLPRPRPRPYQKPRP | -0.0372 |
| RRIRHRPPRLPRPRPRPAIWPRP | 0.137 |
| RRIRIRPPRLPRPRPRPVPYPRP | -0.556 |
| RRIRFRPPRLPRPRPRPCYGPRP | -0.0414 |
| RRIRGRPPRLPRPRPRPYPYPRP | -0.095 |
| RRIRARPPRLPRPRPRPAITPRP | 0.322 |
| RRIRNRPPRLPRPRPRPEVVPRP | -0.252 |
| RRIRMRPPRLPRPRPRPDELPRP | 2.12 |
| RRIRHRPPRLPRPRPRPVYAPRP | -0.375 |
| RRIRVRPPRLPRPRPRPAHQPRP | 0.317 |
| RRIRNRPPRLPRPRPRPRQFPRP | 0.0733 |
| RRIRSRPPRLPRPRPRPIAPPRP | -0.0336 |
| RRIRERPPRLPRPRPRPGTWPRP | -0.0304 |
| RRIRDRPPRLPRPRPRPRSHPRP | -0.0765 |
| RRIRRRPPRLPRPRPRPCMVPRP | 0.106 |
| RRIRARPPRLPRPRPRPHVFPRP | 0.0326 |
| RRIRNRPPRLPRPRPRPLACPRP | 0.118 |
| RRIRKRPPRLPRPRPRPITPPRP | 0.0433 |
| RRIRPRPPRLPRPRPRPHYFPRP | -0.335 |
| RRIRQRPPRLPRPRPRPCQHPRP | 0.0738 |

| Sequence | shrunken log2 fold change |
| --- | --- |
| RRIRGRPPRLPRPRPRPKCFPRP | 0.852 |
| RRIRLRPPRLPRPRPRPKMWPRP | 0.485 |
| RRIRFRPPRLPRPRPRPQPGPRP | 0.152 |
| RRIRRRPPRLPRPRPRPFLFPRP | 0.0785 |
| RRIRGRPPRLPRPRPRPDFGPRP | 0.0741 |
| RRIRKRPPRLPRPRPRPISSPRP | -0.0713 |
| RRIRFRPPRLPRPRPRPQNTPRP | -0.512 |
| RRIRYRPPRLPRPRPRPHMDPRP | -1.85 |
| RRIRPRPPRLPRPRPRPALHPRP | 0.681 |
| RRIRCRPPRLPRPRPRPMTYPRP | -0.185 |
| RRIRVRPPRLPRPRPRPRVGPRP | 0.655 |
| RRIRQRPPRLPRPRPRPPNWPRP | 0.358 |
| RRIRQRPPRLPRPRPRPALPPRP | 0.397 |
| RRIRQRPPRLPRPRPRPWKHPRP | -0.0075 |
| RRIRQRPPRLPRPRPRPDKKPRP | -0.0704 |
| RRIRTRPPRLPRPRPRPVQKPRP | 0.296 |
| RRIRIRPPRLPRPRPRPWDFPRP | -0.11 |
| RRIRPRPPRLPRPRPRPLDRPRP | -0.000978 |
| RRIRYRPPRLPRPRPRPQSGPRP | -0.223 |
| RRIRERPPRLPRPRPRPVNGPRP | -0.323 |
| RRIRIRPPRLPRPRPRPNPEPRP | -0.0503 |
| RRIRPRPPRLPRPRPRPYIYPRP | -0.518 |
| RRIRARPPRLPRPRPRPEWIPRP | 0.129 |
| RRIRRRPPRLPRPRPRPTRIPRP | 0.71 |
| RRIRSRPPRLPRPRPRPLMEPRP | -0.0249 |

| Sequence | shrunken log2 fold change |
| --- | --- |
| RRIRTRPPRLPRPRPRPPAVPRP | 0.292 |
| RRIRARPPRLPRPRPRPNVMPRP | 0.153 |
| RRIRSRPPRLPRPRPRPLPAPRP | 0.494 |
| RRIRRRPPRLPRPRPRPFYAPRP | -0.0129 |
| RRIRARPPRLPRPRPRPVLLPRP | 0.122 |
| RRIRQRPPRLPRPRPRPPYEPRP | -0.114 |
| RRIRFRPPRLPRPRPRPVKTPRP | 0.0856 |
| RRIRPRPPRLPRPRPRPKMMPRP | -0.032 |
| RRIRRRPPRLPRPRPRPPSSPRP | 0.303 |
| RRIRTRPPRLPRPRPRPRQVPRP | -0.0471 |
| RRIRKRPPRLPRPRPRPHPCPRP | -0.22 |
| RRIRSRPPRLPRPRPRPDRPPRP | -0.0605 |
| RRIRTRPPRLPRPRPRPKYEPRP | -0.144 |
| RRIRSRPPRLPRPRPRPHAYPRP | 0.0215 |
| RRIRTRPPRLPRPRPRPFYEPRP | -0.518 |
| RRIRERPPRLPRPRPRPHCEPRP | -0.056 |
| RRIRKRPPRLPRPRPRPRSNPRP | 0.515 |
| RRIRFRPPRLPRPRPRPDGWPRP | 0.13 |
| RRIRLRPPRLPRPRPRPHDDPRP | -0.115 |
| RRIRMRPPRLPRPRPRPLMLPRP | -0.0158 |
| RRIRWRPPRLPRPRPRPVLWPRP | 0.809 |
| RRIRVRPPRLPRPRPRPGRSPRP | 0.649 |
| RRIRERPPRLPRPRPRPDIIPRP | 0.0463 |
| RRIRQRPPRLPRPRPRPGRRPRP | 0.388 |
| RRIRNRPPRLPRPRPRPACWPRP | 0.449 |

| Sequence | shrunken log2 fold change |
| --- | --- |
| RRIRHRPPRLPRPRPRPFLVPRP | -0.106 |
| RRIRGRPPRLPRPRPRPHYIPRP | -0.0882 |
| RRIRNRPPRLPRPRPRPSHKPRP | -0.291 |
| RRIRCRPPRLPRPRPRPTTCPRP | -0.293 |
| RRIRSRPPRLPRPRPRPFNAPRP | -0.459 |
| RRIRLRPPRLPRPRPRPRCQPRP | 0.72 |
| RRIRHRPPRLPRPRPRPFNEPRP | -0.64 |
| RRIRVRPPRLPRPRPRPKVEPRP | 0.317 |
| RRIRHRPPRLPRPRPRPPCSPRP | -0.217 |
| RRIRLRPPRLPRPRPRPICCPRP | -0.205 |
| RRIRERPPRLPRPRPRPISMPRP | 2.71 |
| RRIRPRPPRLPRPRPRPNMGPRP | -0.202 |
| RRIRSRPPRLPRPRPRPCEPPRP | -1.02 |
| RRIRGRPPRLPRPRPRPIAPPRP | 1.29 |
| RRIRIRPPRLPRPRPRPAKHPRP | -0.476 |
| RRIRERPPRLPRPRPRPTRQPRP | 0.588 |
| RRIRRRPPRLPRPRPRPEEGPRP | 0.00715 |
| RRIRLRPPRLPRPRPRPIVVPRP | -0.0319 |
| RRIRSRPPRLPRPRPRPSEEPRP | -0.243 |
| RRIRPRPPRLPRPRPRPSLIPRP | -0.181 |
| RRIRHRPPRLPRPRPRPLEVPRP | -0.184 |
| RRIRTRPPRLPRPRPRPEMQPRP | -0.00136 |
| RRIRLRPPRLPRPRPRPWQNPRP | -0.195 |
| RRIRWRPPRLPRPRPRPQHWPRP | 0.0364 |
| RRIRSRPPRLPRPRPRPQILPRP | -0.0216 |

| Sequence | shrunken log2 fold change |
| --- | --- |
| RRIRQRPPRLPRPRPRPISCPRP | -0.00146 |
| RRIRRRPPRLPRPRPRPNDNPRP | -0.301 |
| RRIRGRPPRLPRPRPRPYDNPRP | -0.183 |
| RRIRPRPPRLPRPRPRPLIWPRP | 0.0601 |
| RRIRIRPPRLPRPRPRPIEFPRP | -0.0138 |
| RRIRSRPPRLPRPRPRPKQFPRP | 0.26 |
| RRIRERPPRLPRPRPRPGRVPRP | 0.195 |
| RRIRSRPPRLPRPRPRPLHRPRP | -0.216 |
| RRIRHRPPRLPRPRPRPDRWPRP | 0.255 |
| RRIRLRPPRLPRPRPRPWEQPRP | -0.206 |
| RRIRKRPPRLPRPRPRPATVPRP | 0.0874 |
| RRIRYRPPRLPRPRPRPKMKPRP | -0.404 |
| RRIRCRPPRLPRPRPRPDGTPRP | 0.105 |
| RRIRKRPPRLPRPRPRPQAEPRP | 0.0754 |
| RRIRMRPPRLPRPRPRPMGAPRP | 1.18 |
| RRIRERPPRLPRPRPRPGYGPRP | -0.165 |
| RRIRMRPPRLPRPRPRPKQEPRP | 3.07 |
| RRIRNRPPRLPRPRPRPNGEPRP | 0.0257 |
| RRIRSRPPRLPRPRPRPSIYPRP | -0.00286 |
| RRIRKRPPRLPRPRPRPNEHPRP | 0.448 |
| RRIRWRPPRLPRPRPRPHCQPRP | -0.102 |
| RRIRTRPPRLPRPRPRPGACPRP | -0.234 |
| RRIRKRPPRLPRPRPRPFDRPRP | 0.375 |
| RRIRVRPPRLPRPRPRPFCYPRP | -0.133 |
| RRIRPRPPRLPRPRPRPIGPPRP | 0.162 |

| Sequence | shrunken log2 fold change |
| --- | --- |
| RRIRNRPPRLPRPRPRPISRPRP | -0.612 |
| RRIRSRPPRLPRPRPRPQTRPRP | 0.181 |
| RRIRTRPPRLPRPRPRPCQTPRP | -0.0283 |
| RRIRQRPPRLPRPRPRPEHNPRP | -0.137 |
| RRIRKRPPRLPRPRPRPNWGPRP | 0.308 |
| RRIRVRPPRLPRPRPRPEFKPRP | 0.0262 |
| RRIRARPPRLPRPRPRPAIWPRP | 0.709 |
| RRIRLRPPRLPRPRPRPPHGPRP | 0.223 |
| RRIRPRPPRLPRPRPRPMMAPRP | 0.0466 |
| RRIRGRPPRLPRPRPRPEIPPRP | 0.196 |
| RRIRPRPPRLPRPRPRPLLFPRP | 0.0745 |
| RRIRHRPPRLPRPRPRPTPKPRP | -0.0377 |
| RRIRVRPPRLPRPRPRPSVQPRP | -0.0929 |
| RRIRTRPPRLPRPRPRPKHCPRP | -0.0769 |
| RRIRIRPPRLPRPRPRPGIAPRP | -0.184 |
| RRIRIRPPRLPRPRPRPFSRPRP | -0.0685 |
| RRIRPRPPRLPRPRPRPYAKPRP | 0.258 |
| RRIRPRPPRLPRPRPRPQMVPRP | -0.491 |
| RRIRIRPPRLPRPRPRPRPHPRP | 1.98 |
| RRIRWRPPRLPRPRPRPSSEPRP | 0.0908 |
| RRIRMRPPRLPRPRPRPRWSPRP | 0.803 |
| RRIRARPPRLPRPRPRPMMPPRP | 0.307 |
| RRIRTRPPRLPRPRPRPNFHPRP | -0.19 |
| RRIRFRPPRLPRPRPRPSKFPRP | -0.434 |
| RRIRRRPPRLPRPRPRPHVFPRP | 2.42 |
